The text below walks through data of patent US20170065662A1 (RESEARCH FOUNDATION FOR THE STATE UNIVERSITY OF NEW YORK, published 2017).

For test [1], the target named is T1, SH3 domain of Abl displayed on phage (UniProt P00519 61-121, limits assumed).
T1 construct: domain: SH3; also called Abl-SH3
Nature of the test: phage-ELISA on immobilised GST-K2.

For test [2], the target named is T2, SH3 domain of Yes displayed on phage (UniProt P07947 91-152, limits assumed).
T2 construct: domain: SH3; also called Yes-SH3
Nature of the test: phage-ELISA on immobilised GST-K2. On the technique in general: In an ELISA, binding on a coated surface is turned into a signal by an enzyme label.

The target of test [3] is T3, GST-Brk (full length GST-PTK6/Brk, SignalChem) (UniProt Q13882 1-451).
T3 construct: mature; Bought enzyme; also called full length Brk; GST-tagged Brk; not shown: glutathione S-transferase (GST) tag
Nature of the test: immunoprecipitation with GST antibodies, p27 immunoblot. The text has this: The reactions were probed by immunoblot analysis with pY88 and pY74 antibodies (FIG. 3C).
Background: A western blot detects proteins with antibodies after separation by electrophoresis.

T1 sequence (P00519 61-121 limits assumed): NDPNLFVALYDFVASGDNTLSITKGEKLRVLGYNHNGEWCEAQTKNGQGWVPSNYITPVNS
T2 sequence (P07947 91-152 limits assumed): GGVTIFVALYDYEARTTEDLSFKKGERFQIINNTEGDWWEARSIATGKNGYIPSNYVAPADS

B1: GST-K2 (N-terminally GST-tagged p27 K2 PxxP peptide) (peptide)
chain: DVSGSRPAAPLIGAPA
notes: also called K2 peptide; K2 site; not shown: glutathione S-transferase (GST) tag of the pGEX-KG vector, N-terminal
On to B1, for which the binding result in test [1] and in test [2] was “no binding” throughout.

Regarding RKWNFDFQNHKPLEGKYEWQEVEKGSLPEFYYRPPRPPKGACKVPAQES (not shown: Flag tag) [F58-106 (Flag tagged K1-site containing peptide, p27 residues 58 to 106)], the binding result in test [3] is given as “binds”.
